Measured values published in US20080248043A1.

Columns and labels:
[1] = target: antigen of Table 4 (native or denatured; not named); assay: denatured conditions; 10 µg/ml
[2] = target: antigen of Table 4 (native or denatured; not named); assay: native conditions; 10 µg/ml
[3] = target: antigen of Table 4 (native or denatured; not named); assay: native conditions; dilution 1:5

Cont
OD (read-out not given) [1]: 0.146
OD (read-out not given) [2]: 0.738
OD (read-out not given) [3]: 0.052
